# Assay results published in the RNAGym collection of RNA variant scans (doi:10.1073/pnas.2313332121).
# B1: TPR t1 (parent)
# chain: GACCAAUCUGCCCUCAGAGCUCGAGAACAUCUUCGGAUGCAGAGGAGGCAGGCUUCGGUGGCGCGAUAGCGCCAACGUCCUCAACCUCCAAUGCAUCCCACCACAUGAUGAUGCCUGAAGAGCCUUGGUUUUUUG
# Variants of: B1
# Assay: polymerase ribozyme fitness, log enrichment relative to wild type (log ratio); higher = more active; in vitro selection for triplet polymerase activity
# Procedure, shortened: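 Mutant libraries of each subunit of a heterodimeric triplet polymerase ribozyme were built by PCR and transcribed. Each library went through one round of in vitro selection in triplicate: annealing with biotinylated primer, partner subunit and triplets, frozen incubation at −7 °C, gel excision of extended constructs, streptavidin-bead capture and RT-PCR. Input and output libraries were Illumina-sequenced; only genotypes with ≥10 input reads and ≥1 read per output were kept. Fitness is log2(genotype enrichment/wild-type enrichment), using inverse-variance-weighted replicate averages.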
row,Variant,polymerase ribozyme fitness (log ratio)
1,G47A C94A,-1.89
2,G60A G122A,-0.483
3,G10A C11U C28A,-4.2
4,G52C G61C C114G G120U,-5.46
5,G61C G63C,-3.6
6,A18U U21C G36A C114U,-3.69
7,A6G C8A,-0.14
8,G77U C101G,-1.96
9,C8U C22G U33A A50C G57U G120U,-4.54
10,C8G C40A U78C,-0.518
11,U9A G61U C85U G117U,0.0255
12,U38G U55G A121C,1.28
13,G52A C76U,-0.303
14,G48A U59A G69C A84U A118C,-3.45
15,C15A G48C C123G,-1.77
16,A5C U112G U130C,-0.277
17,G42U U87C C123A U131C,-0.903
18,C97U G117A,-2.32
19,C8G C28A C72G,-3.76
20,A37U G69A,-3.01
21,C49U C72U C115U C123G,-2.4

row,Variant,polymerase ribozyme fitness (log ratio)
1,C15U G93A,-1.99
2,G93U C101A G113A C115G,-4.73
3,C56U C102A,-1.94
4,G47A G60C G69U A119U,-2.55
5,G61C U81A C124G U132C,-2.36
6,C80U G120C G127C,-0.289
7,C20U A26U U32C G69U,-3.17
8,C22U A90U U112G,-7.35
9,C4U G48U U92G G113C,-3.72
10,A46U U96A,-1.81
11,C15A U21A U78A G93U,-2.36
12,U32C G39A G42A G52A C70U C88G,-3.93
13,C53A U112A,0.632
14,C13U A43C G71A C82A C98G C102A A105U G117C,-6.77
15,C13U C20U G63U,-2.31
16,U21G G61U G120U C123A,-1.78
17,C22G G47U A111C,-5.82
18,G61A U112A,1.31
19,U7C U112C G113U G135A,-3.06
20,G10U G36A G61C,-3.3
21,A27G U38C C40G C49G G63U A95G U132A,-3.68

row,Variant,polymerase ribozyme fitness (log ratio)
1,C12G A26G C98U,-3.76
2,G17C A43C A83U,-6.26
3,C64U C82U C89A,-1.79
4,G69C G71U C97A A108C U109A,-5.19
5,U21A G39U C62A,-2.62
6,A5U A41U G69U,0.0184
7,A18U G42C A50U,-3.92
8,C3U C56G,-0.409
9,A37G G117C,-2.52
10,G69U U126G,-0.571
11,C104U G110A,-0.458
12,C3G U7G C15U U55G C56U G128U,-1.45
13,A37G C76U,-1.3
14,G52C G63A C102U C104A,-3.27
15,C73A C94A,-0.492
16,C12A C22U C56U A83C U125A,-4.56
17,C85U A118G,-0.773
18,C40U C56G G63C,-3.69
19,C98U U116A A119G,-0.385
20,G63A G110C C115G G120U,-7.28
21,G77A C80U C98A C123G,-4.14

row,Variant,polymerase ribozyme fitness (log ratio)
1,G51U C73A G117A,-4.4
2,C15U C56U U87G G113A U130A,-3.68
3,G113A G135U,-2.05
4,A66U A68G C73A C82A,-4.09
5,G51U C53U C85A G93C,-5.05
6,U54C G60U G69U U133G,-2.67
7,C4U C34A A90C C114G G135A,-5.15
8,C8G C20U A68G G113C,-5.52
9,U7A U78C G93U G113C,-3.01
10,G39C G110A,-1.82
11,U9G G52U C70U C88G C123A,-0.768
12,C13U G19A G45C U59C C82U U112A,0.0802
13,G52A G69A G93U C123U,-3.78
14,C11G G113A,-0.119
15,G60A C101G,-1.57
16,G48A C72A U116C,-1.09
17,C53A G135U,-0.659
18,G113C G127C,-3.73
19,C49U C82G,-0.241
20,C11G C34U C49A C123U,-2.86
